In patent US20250376529A1 (Amgen, published 2025):
Substitutions are numbered along the chain they refer to.

Experiments:
Rhesus GIPR = molecular target: T1, Rhesus GIPR (rhesus, UniProt F7E1R9 22-466); assay: cell-based or functional assay
T1 sequence: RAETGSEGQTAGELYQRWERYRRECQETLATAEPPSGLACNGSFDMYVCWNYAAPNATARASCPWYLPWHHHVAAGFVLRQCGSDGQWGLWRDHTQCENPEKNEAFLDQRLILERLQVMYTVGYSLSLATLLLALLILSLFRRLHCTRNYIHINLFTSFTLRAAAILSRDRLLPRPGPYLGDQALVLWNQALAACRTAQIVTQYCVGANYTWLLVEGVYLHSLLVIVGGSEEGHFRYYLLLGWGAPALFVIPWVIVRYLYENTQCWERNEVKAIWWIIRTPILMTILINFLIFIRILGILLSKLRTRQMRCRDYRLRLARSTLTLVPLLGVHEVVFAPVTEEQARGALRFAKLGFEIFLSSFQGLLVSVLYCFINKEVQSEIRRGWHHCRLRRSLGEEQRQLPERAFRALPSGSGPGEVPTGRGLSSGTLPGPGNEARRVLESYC

huGIPR ECD = molecular target: T2, huGIPR ECD (human, UniProt P48546 22-139, limits assumed); assay: SPR (MASS-1), captured mAb
T2 construct: Soluble ECD injected in the MASS-1 assay; also called human GIPR extracellular domain
T2 sequence: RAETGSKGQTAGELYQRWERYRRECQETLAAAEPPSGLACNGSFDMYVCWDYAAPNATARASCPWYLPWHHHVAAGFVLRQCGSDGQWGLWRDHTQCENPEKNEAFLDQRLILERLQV

B1: 2C2.005.013 (antibody, human IgG1, lambda, N297G, V domains shown)
VH: QMQVVQSGAEVKKPGASVKVSCKASGYTFTGYYMHWVRQAPGQGLEWMGWINPNSGGTNYAQKFQGRVTMTRDTSISTAYMELSSLRSDDTAVYYCARGGDYVFGTYRPHYYYGMDVWGQGTTVTVSS
VL: not shown
- Rhesus GIPR CAMP Assay (Conc. mAb @ 60% Inhibition in nM) (Rhesus GIPR): 1.23 nM

B2: 4H9.004.003 (antibody, human IgG1, kappa, N297G, V domains shown)
VH: not shown
VL: DIQMTQSPSSLSASVGDRVTITCRASQGIRNELGWYQQKPGKAPKLLIYGASSLQSGVPSRFSGSGSGTEFTLTISSLQPEDFVTYYCLQHNSYPFTFGQGTKVDVKR
- Rhesus GIPR CAMP Assay (Conc. mAb @ 60% Inhibition in nM) (Rhesus GIPR): 0.5 nM

B3: 2A11.003 (antibody, human IgG1, kappa, N297G, V domains shown)
VH: QVQLVESGGGVVQPGRSLRLSCAASGFSFSSYGMHWVRQAPGKGLEWVAVIWYDGSNKYYEDSVKGRFTISRDNSKNTLFLQVNSLRAEDTAVYYCARGITIFGHGFEYWGQGTLVTVSS
VL: EIVLTQSPGTLSLSPGERATLSCRASQIFTSTYLAWYQQKPGQAPRLLIYGASSRATGIPDRFSGSGSGTDFTLTISRLEPEDFAVYYCQQYGSSPRFGQGTRLEIKR
notes: also called iPS:335965; iPS:335967
- binding result (huGIPR ECD): no binding (tested: 200 nM huGIPR ECD)

B4: 2A11.004 (antibody, human IgG1, kappa, N297G, V domains shown)
VH: B3 VH with S63A
VL: B3 VL
notes: also called iPS:361158; iPS:361160
- binding result (huGIPR ECD): no binding (tested: 200 nM huGIPR ECD)

B5: 2A11.005 (antibody, human IgG1, kappa, N297G, V domains shown)
VH: B3 VH with G55A
VL: B3 VL
notes: also called iPS:361165; iPS:361167
- binding result (huGIPR ECD): no binding (tested: 200 nM huGIPR ECD)

B6: 12H11.005 (antibody, human IgG1, kappa, N297G, V domains shown)
VH: QVPLVQSGAEVKKPGASVKVSCKASGYTFTGYYIHWVRQAPGQGLEWMGWISPNNGETNYAQKFQDRVTMTRDTSISTAYMELSRLRSDDTAVYYCAREATIFGMLIVPFDYWGQGTLVTVSS
VL: DIVMTQSPDSLSVSLGERATINCKSSQSVLSSSNNKNYLAWYQQKPGQPPNLLIYWTSTRDSGVPDRFSGSGSGTDFTLTINSLQAEDVAVYYCQQYYRTPWTFGQGTKVEIKR
- Rhesus GIPR CAMP Assay (Conc. mAb @ 60% Inhibition in nM) (Rhesus GIPR): 0.61 nM

B7: 12H11.010 (antibody, human IgG1, kappa, N297G, V domains shown)
VH: B6 VH with E57D
VL: not shown
- Rhesus GIPR CAMP Assay (Conc. mAb @ 60% Inhibition in nM) (Rhesus GIPR): 0.71 nM

B8: 12H11.007 (antibody, human IgG1, kappa, N297G, V domains shown)
VH: B6 VH with N55Q, E57D, A97T
VL: B6 VL
- Rhesus GIPR CAMP Assay (Conc. mAb @ 60% Inhibition in nM) (Rhesus GIPR): 0.56 nM

B9: 12H11.009 (antibody, human IgG1, kappa, N297G, V domains shown)
VH: B6 VH with N55Q
VL: not shown
- Rhesus GIPR CAMP Assay (Conc. mAb @ 60% Inhibition in nM) (Rhesus GIPR): 0.6 nM

B10: 12H11.006 (antibody, human IgG1, kappa, N297G, V domains shown)
VH: B6 VH with E57D
VL: B6 VL
- Rhesus GIPR CAMP Assay (Conc. mAb @ 60% Inhibition in nM) (Rhesus GIPR): 0.59 nM

B11: 12H11.008 (antibody, human IgG1, kappa, N297G, V domains shown)
VH: B6 VH with A97T
VL: B6 VL
- Rhesus GIPR CAMP Assay (Conc. mAb @ 60% Inhibition in nM) (Rhesus GIPR): 0.56 nM

B12: 12H11.011 (antibody, human IgG1, kappa, N297G, V domains shown)
VH: B6 VH with N55Q, E57D
VL: not shown
- Rhesus GIPR CAMP Assay (Conc. mAb @ 60% Inhibition in nM) (Rhesus GIPR): 0.47 nM

B13: 12H11.012 (antibody, human IgG1, kappa, N297G, V domains shown)
VH: B6 VH
VL: not shown
- Rhesus GIPR CAMP Assay (Conc. mAb @ 60% Inhibition in nM) (Rhesus GIPR): 0.57 nM

B14: 6A5.004.009 (antibody, human IgG1, kappa, N297G, V domains shown)
VH: QVQLVESGGGVVQPGRSLRLSCAASGFSFSSYGMHWVRQPPGKGLEWVAAIWYDANNKYYADSVKGRFTISRDSSKNTLYLQMNSLRAEDTAVYYCARDRTIFGVVLEYWGQGTLVTVSS
VL: DIQMTQSPSSLSASVGDRVTITCQASQDITNYLNWYQQKPGKAPKLLIYDASNLEPGVPSRFSGSGSGTDFTLTISSLQPEDFATYYCQQYDDLFTFGPGTKVDIKR
notes: also called iPS:361120; iPS:361122
- Rhesus GIPR CAMP Assay (Conc. mAb @ 60% Inhibition in nM) (Rhesus GIPR): 23.3 nM
- binding result (huGIPR ECD): no binding (tested: 200 nM huGIPR ECD)

B15: 2F11.002 (antibody, human IgG1, kappa, N297G, V domains shown)
VH: not shown
VL: B14 VL with T30S, P56T, T72S, D93I, F95L, P99G, D104E
- Rhesus GIPR CAMP Assay (Conc. mAb @ 60% Inhibition in nM) (Rhesus GIPR): 40 nM

B16: 2F11.009 (antibody, human IgG1, kappa, N297G, V domains shown)
VH: B14 VH with S28T, P40A, A50V, N56S, S74N, E108D
VL: B14 VL with T30S, P56T, T72S, D93I, F95L, P99G, D104E
- Rhesus GIPR CAMP Assay (Conc. mAb @ 60% Inhibition in nM) (Rhesus GIPR): 36.9 nM

B17: 2F11.008 (antibody, human IgG1, kappa, N297G, V domains shown)
VH: not shown
VL: B14 VL with T30S, P56T, T72S, L73F, F83I, D93I, F95L, P99G, D104E
- Rhesus GIPR CAMP Assay (Conc. mAb @ 60% Inhibition in nM) (Rhesus GIPR): 57.4 nM

B18: 2F11.005 (antibody, human IgG1, kappa, N297G, V domains shown)
VH: not shown
VL: B14 VL with T30S, P56T, T72S, L73F, D93I, F95L, P99G, D104E
- Rhesus GIPR CAMP Assay (Conc. mAb @ 60% Inhibition in nM) (Rhesus GIPR): 68.6 nM

B19: 2F11.007 (antibody, human IgG1, kappa, N297G, V domains shown)
VH: B14 VH with S28T, P40A, A50V, N56S, S63A, R72S, S74N, E108D
VL: B14 VL with T30S, P56T, T72S, L73F, D93I, F95L, P99G, D104E
- Rhesus GIPR CAMP Assay (Conc. mAb @ 60% Inhibition in nM) (Rhesus GIPR): 1.82 nM

B20: 2F11.004 (antibody, human IgG1, kappa, N297G, V domains shown)
VH: not shown
VL: B14 VL with T30S, P56T, T72S, F83I, D93I, F95L, P99G, D104E
- Rhesus GIPR CAMP Assay (Conc. mAb @ 60% Inhibition in nM) (Rhesus GIPR): 35.5 nM

B21: 2F11.003 (antibody, human IgG1, kappa, N297G, V domains shown)
VH: B14 VH with S28T, P40A, A50V, N56S, S63A, R72S, S74N, E108D
VL: B14 VL with T30S, P56T, T72S, D93I, F95L, P99G, D104E
- Rhesus GIPR CAMP Assay (Conc. mAb @ 60% Inhibition in nM) (Rhesus GIPR): 1.79 nM

B22: 2F11.010 (antibody, human IgG1, kappa, N297G, V domains shown)
VH: not shown
VL: B14 VL with T30S, P56T, T72S, D93I, F95L, P99G, D104E
- Rhesus GIPR CAMP Assay (Conc. mAb @ 60% Inhibition in nM) (Rhesus GIPR): 8.24 nM

B23: 2F11.006 (antibody, human IgG1, kappa, N297G, V domains shown)
VH: B14 VH with S28T, P40A, A50V, N56S, S63A, R72S, S74N, E108D
VL: B14 VL with T30S, P56T, T72S, F83I, D93I, F95L, P99G, D104E
- Rhesus GIPR CAMP Assay (Conc. mAb @ 60% Inhibition in nM) (Rhesus GIPR): 1.3 nM

B24: 17B11.002.001 (antibody, human IgG1, lambda, N297G, V domains shown)
VH: QMQLVQSGAEVKKPGASVKVSCKASGYTFTSYDINWVRQATGQGLEWMGWMNPNSGGTGYAQKFQGRVTMTRDTSISTAYMELSSLRSQDTAVYYCARGGDYVWGSYRPYYYYYGMDVWGQGTTVTVSS
VL: QSVLTQPPSVSAAPGQKVTISCSGSSSNIGNNYVSWYQQLPGTAPKLLIYDNNKRPSGIPDRFSGSKSGTSATLGITGLQTGDEADYYCGTWDSSLSAVVFGGGTKLTVLG
- Rhesus GIPR CAMP Assay (Conc. mAb @ 60% Inhibition in nM) (Rhesus GIPR): 0.29 nM

B25: 17B11.002.006 (antibody, human IgG1, lambda, N297G, V domains shown)
VH: B24 VH with T41P, G57N, Q89D
VL: B24 VL with G75A
- Rhesus GIPR CAMP Assay (Conc. mAb @ 60% Inhibition in nM) (Rhesus GIPR): 0 nM

B26: 17B11.002.008 (antibody, human IgG1, lambda, N297G, V domains shown)
VH: B24 VH with T41P, Q89D, W104F
VL: B24 VL with G75A, W92F, D93E
- Rhesus GIPR CAMP Assay (Conc. mAb @ 60% Inhibition in nM) (Rhesus GIPR): 7.89 nM

B27: 17B11.002.002 (antibody, human IgG1, lambda, N297G, V domains shown)
VH: B24 VH with G57N
VL: B24 VL
- Rhesus GIPR CAMP Assay (Conc. mAb @ 60% Inhibition in nM) (Rhesus GIPR): 0 nM

B28: 17B11.002.005 (antibody, human IgG1, lambda, N297G, V domains shown)
VH: B24 VH
VL: B24 VL with G75A
- Rhesus GIPR CAMP Assay (Conc. mAb @ 60% Inhibition in nM) (Rhesus GIPR): 0.08 nM

B29: 17B11.002.003 (antibody, human IgG1, lambda, N297G, V domains shown)
VH: B24 VH
VL: B24 VL with Q38E, L40F
- Rhesus GIPR CAMP Assay (Conc. mAb @ 60% Inhibition in nM) (Rhesus GIPR): 0.08 nM

B30: 17B11.002.004 (antibody, human IgG1, lambda, N297G, V domains shown)
VH: B24 VH with T41P, Q89D
VL: B24 VL with G75A, W92F, D93E
- Rhesus GIPR CAMP Assay (Conc. mAb @ 60% Inhibition in nM) (Rhesus GIPR): 0.17 nM

B31: 17B11.002 (antibody, human IgG1, lambda, N297G, V domains shown)
VH: B24 VH with G57N
VL: B24 VL with Q38E, L40F
- Rhesus GIPR CAMP Assay (Conc. mAb @ 60% Inhibition in nM) (Rhesus GIPR): 0.21 nM

B32: 17B11.002.007 (antibody, human IgG1, lambda, N297G, V domains shown)
VH: B24 VH with W104F
VL: B24 VL
- Rhesus GIPR CAMP Assay (Conc. mAb @ 60% Inhibition in nM) (Rhesus GIPR): 0.9 nM
